Assay results reported in patent publication US20160346375A1 (MCMASTER UNIVERSITY, published 2016).

Target: T1, Cpn0803 (Chlamydia pneumoniae, UniProt Q9Z7A3 1-184)
T1 construct: Prey in an E. coli lysate
T1 sequence: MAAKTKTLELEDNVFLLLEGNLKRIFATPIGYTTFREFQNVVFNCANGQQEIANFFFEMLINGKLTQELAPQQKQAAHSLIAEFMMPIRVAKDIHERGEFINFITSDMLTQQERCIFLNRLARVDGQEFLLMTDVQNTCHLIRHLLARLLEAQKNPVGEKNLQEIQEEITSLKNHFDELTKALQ
Assay: GST pull-down from E. coli lysate, high salt wash

B1: GST-CopB1-255 (other)
chain: MSISSSSGPDNQKNIMSQVLTSTPQGVPQQDKLSGNETKQIQQTRQGKNTEMESDATIAGASGKDKTSSTTKTETAPQQGVAAGKESSESQKAGADTGVSGAAATTASNTATKIAMQTSIEEASKSMESTLESLQSLSAAQMKEVEAVVVAALSGKSSGSAKLETPELPKPGVTPRSEVIEIGLALAKAIQTLGEATKSALSNYASTQAQADQTNKLGLEKQAIKIDKEREEYQEMKAAEQKSKDLEGTMDTVNT
notes: Bait on glutathione-agarose beads; also called recombinant GST-CopB1-255; GST-CopB fragment; not shown: glutathione-S-transferase (GST) fusion tag
  binding result: no binding
